Some results are limits rather than exact numbers.

The target of the experiment is Drosophila CstF64 (Drosophila (endogenous in Kc cells)) (UniProt Q86NL1). Put plainly: co-IP.

“Drosophila Lsm11 (endogenous) (natural protein)” yielded a percent precipitated by the anti-CstF64 antibody of over 10%.

The values are drawn from article PMC3884669.
